Measurements as given in patent publication US7291332B2, “Inflammatory mediator antagonists” (SmithKline Beecham Corporation, priority 1998, dated 2007).

T1: L-selectin (Homo sapiens, UniProt P14151)
T1 construct: endogenous in cells; host or cells: human peripheral blood mononuclear cells (buffy coats)
T1 sequence (P14151 39-372): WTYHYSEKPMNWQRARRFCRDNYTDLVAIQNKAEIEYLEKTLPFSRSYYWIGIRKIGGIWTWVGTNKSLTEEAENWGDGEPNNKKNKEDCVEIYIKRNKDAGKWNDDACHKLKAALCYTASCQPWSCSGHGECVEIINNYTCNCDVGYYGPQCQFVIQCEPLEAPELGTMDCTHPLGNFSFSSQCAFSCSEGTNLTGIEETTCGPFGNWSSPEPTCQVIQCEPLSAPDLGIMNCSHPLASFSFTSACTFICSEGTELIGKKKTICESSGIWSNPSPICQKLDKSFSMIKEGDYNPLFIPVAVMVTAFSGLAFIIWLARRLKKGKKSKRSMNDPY

T2: gp130-Fc (Homo sapiens, UniProt P40189)
T2 construct: DNA encoding the extracellular domain of human gp130 was amplified; made in house; host or cells: insect cells (Bac-to-Bac baculovirus) for gp130-Fc; E. coli BLR-DE3 for OSM
T2 sequence (P40189 23-619 limits assumed): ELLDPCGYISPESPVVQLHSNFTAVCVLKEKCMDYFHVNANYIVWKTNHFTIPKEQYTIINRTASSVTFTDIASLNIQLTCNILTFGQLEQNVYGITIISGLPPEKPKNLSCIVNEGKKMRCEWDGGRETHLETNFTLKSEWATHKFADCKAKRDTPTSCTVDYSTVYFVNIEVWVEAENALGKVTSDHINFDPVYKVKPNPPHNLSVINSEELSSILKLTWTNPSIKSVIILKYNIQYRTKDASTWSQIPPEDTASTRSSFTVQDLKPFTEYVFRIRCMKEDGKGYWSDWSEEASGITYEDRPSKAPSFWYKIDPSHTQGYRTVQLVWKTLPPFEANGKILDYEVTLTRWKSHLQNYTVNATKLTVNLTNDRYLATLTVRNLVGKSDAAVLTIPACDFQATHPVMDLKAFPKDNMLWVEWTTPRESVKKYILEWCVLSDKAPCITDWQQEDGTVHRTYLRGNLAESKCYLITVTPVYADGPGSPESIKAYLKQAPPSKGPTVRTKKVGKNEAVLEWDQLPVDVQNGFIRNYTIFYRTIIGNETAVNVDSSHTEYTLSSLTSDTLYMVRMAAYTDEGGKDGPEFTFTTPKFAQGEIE


What was measured:
[1] = system: OSM-induced sPAP release, HepG2 B6 cells; assay: HepG2 B6: OSM-induced sPAP assay; type: cell-based, human
Excerpt: A HepG2 cell line (ECACC) was stably transfected with six functional STAT3 response elements (REs) upstream of sPAP (secreted placental alkaline phosphatase) cDNA as described below to form HepG2B6. STAT3 (signal transducer and activator of transcription) is an intermediate in the IL-6 cytokine family […] signalling cascade. Following dimerisation of cell surface receptors STAT3 is phosphorylated and will then bind to DNA REs in the nucleus and activate DNA downstream, in this construct that DNA is sPAP. Thus this line can be driven to produce sPAP by overnight incubation in Oncostatin M.
(§1) HepG2 B6 cells were plated into 96 well plates to a final concentration of 3×10^4 cells per well in 100 μl of media (DMEM (Sigma), 10% HI FCS, 1% non-essential amino acids, 2 mM Glutamine, 500 μg ml^−1 G418, (all from Life Technologies)). Cells were allowed to equilibrate for 48 hours. Putative anti-OSM solid compounds were made up to a stock dilution of 20 mM in DMSO and serially diluted 1:3 in DMSO. This was then further diluted in HepG26B assay media, this is as above media but with 1% heat inactivated FCS, low alkaline phosphatase activity (Life Technologies) substituted for 10% HI FCS. Compounds were diluted 1:3 from a top concentration of […] to a final concentration of 0.09 μM in a final concentration of 1% DMSO. (That is 200, 66.67, 22.22, 7.41, 2.47, 0.82, 0.27, 0.09 and 0 μM). The old media was removed from the wells and replaced with diluted compound also containing 2 ng ml^−1 OSM (R&D Systems), cells were incubated for a further 20 hours. Each dilution was performed in triplicate. 20 μl of media was removed from each well and assayed for sPAP activity using pNPP (p-Nitrophenyl phosphate; Sigma), as a substrate. Endogenous alkaline phosphatase is blocked with L-homoarginine. Optical density of substrate is read at 405-650 nm. Concentration of compound is plotted against OD as a measure of sPAP produced and can be analysed to determine IC50 values.

[2] = system: TNFα-induced sPAP release, A549 cells; assay: A549 cells: TNFα-induced sPAP assay; type: cell-based, human
Procedure: This assay used A549 cells that had been stably transfected with a reporter gene, comprising the cytokine responsive region of the E-selectin gene coupled to alkaline phosphatase (Ray et al., Biochem J. 328:707-715, 1997). This transfected cell line can be driven to produce sPAP by overnight incubation with TNFα.
A549 cells were plated into 96 well plates to a final concentration of 5×10^4 cells per well in […] of media. Cells were allowed to equilibrate for 24 hours. Putative anti-OSM solid compounds are made up to a stock dilution of 20 mM in DMSO and serially diluted 1:3 in DMSO. This was then further diluted in media (DMEM, 1% heat inactivated FCS, low alkaline phosphatase activity, 1% non-essential amino acids, 2 mM Glutamine, 500 μg ml^−1 G418, (all from Life Technologies), to give a concentration response of 0.09-200 μM in a final concentration of 1% DMSO. The old media was removed from the wells and replaced with diluted compound also containing 3 ng ml^−1 TNFα (R&D Systems), cells were incubated for a further 20 hours. Each dilution was performed in triplicate. 20 μl of media was removed from each well and assayed for sPAP activity using p-Nitrophenyl phosphate (Sigma), as a substrate. […] Optical density of substrate is read at 405-650 nm. Concentration of compound is plotted against OD as a measure of sPAP produced and can be analysed to determine IC50 values.

L-selectin = target: T1, L-selectin; assay: Stimulation of PBMC via L-selectin: OSM secretion (ELISA); type: cell-based; conditions: 24 hr incubation
Procedure: Mononuclear cells were isolated from human buffy coats as described above. 5×10^5 cells were plated out in 0.5 ml volumes and incubated for 24 hr at 37° C., 5% CO2 with 60-80 kD M. wt. fucoidan (Sigma) anti-L-selectin monoclonal antibodies, LAM1-3 and TQ1 or an isotype matched control IgG antibody (all from Coulter). Supernatants were assayed for OSM using a specific ELISA assay (Quantikine, R&D Systems), according to the Manufacturer's instructions.
Mononuclear cells from healthy donors were incubated for 24 hrs with anti-human L-selectin antibodies, (either TQ1 or LAM-1), or an isotype-matched control antibody and culture supernatants assayed by ELISA for OSM. […] The ability of the L-selectin agonist fucoidan to induce OSM from mononuclear cell cultures was then investigated.

gp130-Fc = target: T2, gp130-Fc; assay: Competition of OSM-GST with plate-bound wild type OSM for binding to gp130-Fc (ELISA)
Procedure: Nunc Immunoplates (F6 Maxisorp, Life Technologies) were coated overnight (4° C.) with wild type OSM (produced according to Example 7a); 50 μl/well, 1 μg/ml in carbonate/bicarbonate buffer pH 9.4). Plates were washed (×6 in PBS 0.05% tween 20, using Skatron Plate washer), tapped dry and blocked to reduce non-specific binding (200 μl/well, 1% BSA/PBS). Following 1 h incubation (room temperature on a shaking platform) the plates were tapped dry and wild type (wt) or mutant OSM-GST from Example 9b added (50 μl/well, 20-0.002 μg/ml, titrated in 1%BSA/PBS). As a positive control polyclonal anti-human OSM antibody (R&D Systems) was also tested (20-0.02 μg/ml). A complex of gp130-Fc (Produced as below 300 ng/ml) and anti-human IgG alkaline phosphatase conjugate (1:500, Sigma) in 1% BSA/PBS (50 μl/well) was added immediately after the agents under test. Following a 5 h incubation (room temperature on a shaking platform) the plates were washed (×6) and developed using ELISA Amplification System (Life Technologies) as manufacturer's instructions and the OD measured at 490 nm. On each plate the total binding was determined by gp130-Fc/conjugate and OSM in the presence of 1% BSA/PBS, and non-specific binding by gp130-Fc/conjugate in absence of OSM, or conjugate binding to OSM in absence of gp130-Fc.
Mutant and wt OSM-GST were tested to obtain IC50 in 3-6 experiments. The mean OD in the presence of OSM and gp130-Fc in the absence of competing ligand (i.e., total binding) was 1.157 (range 0.825-1.807) and the non specific binding was less than 0.08.

[3] = system: HepG2 B6 cells (STAT-sPAP reporter); assay: OSM-GST mutant driven sPAP production in HepG2 B6 assay; type: cell-based, human; conditions: for 'Potency': relative to wild type, from Mean %
Procedure: as §1
The assay described in Example 7b above was employed. OSM-GST mutants were diluted to a concentration of 100 ng ml^−using the known concentration of intact OSM mutants generated in Example 9b. A wild type OSM-GST was included for control purposes. Dilutions were made in HepG2 B6 media with 1% heat inactivated FCS, low alkaline phosphatase activity. Serial 1:3 dilutions were then made. (100; 33.33; 11.11; 3.7; 1.23; 0.4 ng ml^−1). 3×10^4 HepG2 B6 were dispensed into individual well of a 96 well plate in 100 μl of media. Cells were allowed to equilibrate for 48 hours. Media was then removed and replaced with 100 μl of diluted OSM-GST mutant. Cells were incubated for a further 20 hours. Each dilution was performed in triplicate. 20 μl of media was removed and assayed for sPAP using pNPP as a substrate. Endogenous ALP was blocked with L-homoarginine. O.D. was read at 405-650 nm. The experiment was repeated twice.

IC50 ([1]; Homo sapiens, HepG2, 2 ng/ml OSM, 20 hours, read-out: IC50, inhibition of OSM-induced sPAP release) [nM]	IC50 ([2]; Homo sapiens, A549, 3 ng/ml TNFα, 20 hours, read-out: approx. IC50, inhibition of TNFα-induced sPAP) [µM]	OSM secretion by mononuclear cells (L-selectin)	ability to compete with wt OSM for gp130 binding (gp130-Fc)	Expt 1 EC50 [3] [ng/mL]	Expt 2 EC50 [3] [ng/mL]	Molecule	inhibition of OSM-induced sPAP release ([1]; HepG2 B6)	selectivity for OSM over TNFα ([1]; from sPAP IC50 values)	inhibition of TNFα-induced sPAP release ([2]; A549 cells)	'Potency' [3]
300	~92	–	–	–	–	O=C(Nc1ncnc2[nH]ncc12)c1ccccc1 [GW 340442X, N-(1H-pyrazolo[3,4-d]pyrimidin-4-yl)benzamide]	concentration-dependent inhibition	greater than 100 fold	limited inhibition	–
–	–	powerful stimulant of OSM secretion	–	–	–	fucoidan	–	–	–	–

Further lines, the molecule ahead of its results:

Molecule	IC50 ([1]; Homo sapiens, HepG2, 2 ng/ml OSM, 20 hours, read-out: IC50, inhibition of OSM-induced sPAP release) [nM]	IC50 ([2]; Homo sapiens, A549, 3 ng/ml TNFα, 20 hours, read-out: approx. IC50, inhibition of TNFα-induced sPAP) [µM]	OSM secretion by mononuclear cells (L-selectin)	ability to compete with wt OSM for gp130 binding (gp130-Fc)	Expt 1 EC50 [3] [ng/mL]	Expt 2 EC50 [3] [ng/mL]	inhibition of OSM-induced sPAP release ([1]; HepG2 B6)	selectivity for OSM over TNFα ([1]; from sPAP IC50 values)	inhibition of TNFα-induced sPAP release ([2]; A549 cells)	'Potency' [3]
(22) N123A: OSM-GST fusion, alanine for Asn 123 (protein, left off: a dimerising Fc or GST; large carriers; small tags and cut ends) AAIGSCSKEYRVLLGQLQKQTDLMQDTSRLLDPYIRIQGLDVPKLREHCRERPGAFPSEETLRGLGRRGFLQTLNATLGCVLHRLADLEQRLPKAQDLERSGLNIEDLEKLQMARPNILGLRANIYCMAQLLDNSDTAEPTKAGRGASQPPTPTPASDAFQRKLEGCRFLHGYHRFMHSVGRVFSKWGESPNRSRR	–	–	–	substantial decrease	37.9	49.7	–	–	–	LESS (>120% Less potent than wild type)
(23) N124A: OSM-GST fusion, alanine for Asn 124 (protein, left off: a dimerising Fc or GST; large carriers; small tags and cut ends) AAIGSCSKEYRVLLGQLQKQTDLMQDTSRLLDPYIRIQGLDVPKLREHCRERPGAFPSEETLRGLGRRGFLQTLNATLGCVLHRLADLEQRLPKAQDLERSGLNIEDLEKLQMARPNILGLRNAIYCMAQLLDNSDTAEPTKAGRGASQPPTPTPASDAFQRKLEGCRFLHGYHRFMHSVGRVFSKWGESPNRSRR	–	–	–	substantial decrease	30.2	36.2	–	–	–	EQUAL (80-120% Equal potency)
